This assay has as its target T1, TfR (Biotinylated; site and any biotin-acceptor or purification tag are not stated in the passages seen.).
T1 construct: also called biotinylated TfR ectodomain; control protein
The experiment in a line: flow cytometry, 293F cells displaying YAP (SDGF), co-incubated with biotinylated TfR ectodomain (control protein) and streptavidin-Alexa647.

T1 sequence (chain, as listed by the source limits assumed): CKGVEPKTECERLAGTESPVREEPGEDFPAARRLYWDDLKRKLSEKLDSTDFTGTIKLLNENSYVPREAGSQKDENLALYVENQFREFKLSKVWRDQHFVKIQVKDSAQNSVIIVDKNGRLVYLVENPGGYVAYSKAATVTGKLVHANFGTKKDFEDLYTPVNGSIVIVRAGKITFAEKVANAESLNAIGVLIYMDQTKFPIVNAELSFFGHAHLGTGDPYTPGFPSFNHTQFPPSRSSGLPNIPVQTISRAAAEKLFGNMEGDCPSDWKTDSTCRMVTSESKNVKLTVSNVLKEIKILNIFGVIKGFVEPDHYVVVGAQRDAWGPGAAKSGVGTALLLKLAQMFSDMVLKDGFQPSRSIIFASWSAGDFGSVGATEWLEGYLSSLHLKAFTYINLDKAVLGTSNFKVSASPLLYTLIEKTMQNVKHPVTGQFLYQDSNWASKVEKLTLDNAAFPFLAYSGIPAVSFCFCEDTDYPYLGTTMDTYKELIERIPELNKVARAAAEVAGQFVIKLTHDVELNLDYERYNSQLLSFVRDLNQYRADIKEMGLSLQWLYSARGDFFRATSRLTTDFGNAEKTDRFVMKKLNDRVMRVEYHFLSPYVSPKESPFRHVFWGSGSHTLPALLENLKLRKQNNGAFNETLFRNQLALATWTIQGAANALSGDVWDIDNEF

B1: SDGF-YAP (50-171), surface-tethered on HEK-293 cells (other, UniProt P46937 50-171, looked up)
chain: AGHQIVHVRGDSETDLEALFNAVMNPKTANVPQTVPMRLRKLPDSFFKPPEPKSHSRQASTDAGTAGALTPQHVRAHSSPASLQLGAVSPGTLTPTGVVSGPAATPTAQHLRQSSFEIPDDV
Regarding B1, the binding result was “no binding (tested: not shown on the sheet)”.

These data come from patent US20230151068A1 (FRED HUTCHINSON CANCER CENTER, published 2023).
